B1: TFE3 (parent)
chain: FPSDHLGDLGDPFHLGLEDILMEE

Variants of: B1
Assay: protein stability index of a GFP-peptide fusion (GPS, HEK-293T) (PSI 1-6); higher = more stable
Settings: c terminus: a fixed tail appended
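Note: lentivirally expressed fusions sorted by FACS into six bins by GFP to DsRed ratio, PSI derived from sequencing read proportions per bin multiplied by bin number.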

Variant	protein stability index
FPSDHLGDLGDPFPLGLEDILMEE [H14P]	4.66
FPSDHLGDLGDPFWLGLEDILMEE [H14W]	2.27
FPSDHLGDLGDPFNLGLEDILMEE [H14N]	3.67
FPSDHLGDLGDPFALGLEDILMEE [H14A]	4
FPSDHLGDLGDPFDLGLEDILMEE [H14D]	4.61
FPSDHLGDLGDPFMLGLEDILMEE [H14M]	3.74
FPSDHLGDLGDPFKLGLEDILMEE [H14K]	3.7
FPSDHLGDLGDPFSLGLEDILMEE [H14S]	4.25
FPSDHLGDLGDPFLLGLEDILMEE [H14L]	3.38
FPSDHLGDLGDPFTLGLEDILMEE [H14T]	3.64
FPSDHLGDLGDPFQLGLEDILMEE [H14Q]	4.09
FPSDHLGDLGDPFFLGLEDILMEE [H14F]	3.09
FPSDHLGDLGDPFVLGLEDILMEE [H14V]	3.04
FPSDHLGDLGDPFGLGLEDILMEE [H14G]	4.14
FPSDHLGDLGDPFILGLEDILMEE [H14I]	3.44
FPSDHLGDLGDPFELGLEDILMEE [H14E]	4.36
FPSDHLGDLGDPFYLGLEDILMEE [H14Y]	3.32
FPSDHLGDLGDPFCLGLEDILMEE [H14C]	2.66
FPSDHLGDLGDPFRLGLEDILMEE [H14R]	3.52
FPSDHLGDLGDPFHLGLEDALMEE [I20A]	3.28
FPSDHLGDLGDPFHLGLEDDLMEE [I20D]	4.26
FPSDHLGDLGDPFHLGLEDCLMEE [I20C]	3.84
FPSDHLGDLGDPFHLGMEDILMEE [L17M]	2.91
FPSDHLGDLGDPFHLGFEDILMEE [L17F]	3.1

Variant	protein stability index
FPSDHLGDLGDPFHLGYEDILMEE [L17Y]	3.46
FPSDHLGDLGDPFHLGEEDILMEE [L17E]	4.11
FPSDHLGDLGDPFHLGCEDILMEE [L17C]	3.5
FPSDHLGDLGDPFHLGHEDILMEE [L17H]	4.29
FPSDHLGDLGDPFHLGKEDILMEE [L17K]	3.53
FPSDHLGDLGDPFHLGSEDILMEE [L17S]	3.86
FPSDHLGDLGDPFHLGGEDILMEE [L17G]	3.7
FPSDHLGDLGDPFHLGVEDILMEE [L17V]	3.09
FPSDHLGDLGDPFHLGREDILMEE [L17R]	3.55
FPSDHLGDLGDPFHLGPEDILMEE [L17P]	3.67
FPSDHLGDLGDPFHLGTEDILMEE [L17T]	3.47
FPSDHLGDLGDPFHLGAEDILMEE [L17A]	3.92
FPSDHLGDLGDPFHLGNEDILMEE [L17N]	4.21
FPSDHLGDLGDPFHLGDEDILMEE [L17D]	4.5
FPSDHLGDLGDPFHLGWEDILMEE [L17W]	3.19
FPSDHLGDLGDPFHLGIEDILMEE [L17I]	3.22
FPSDHLGDLGDPFHLGQEDILMEE [L17Q]	3.55
FPSDHLGDLGEPFHLGLEDILMEE [D11E]	4.24
FPSDHLGDLGPPFHLGLEDILMEE [D11P]	3.87
FPSDHLGDLGYPFHLGLEDILMEE [D11Y]	2.67
FPSDHLGDLGVPFHLGLEDILMEE [D11V]	3.32
FPSDHLGDLGSPFHLGLEDILMEE [D11S]	2.13
FPSDHLGDLGTPFHLGLEDILMEE [D11T]	2.92
FPSDHLGDLGMPFHLGLEDILMEE [D11M]	3.08

Variant	protein stability index
FPSDHLGDLGIPFHLGLEDILMEE [D11I]	3.23
FPSDHLGDLGWPFHLGLEDILMEE [D11W]	1.89
FPSDHLGDLGGPFHLGLEDILMEE [D11G]	3.52
FPSDHLGDLGKPFHLGLEDILMEE [D11K]	3.42
FPSDHLGDLGQPFHLGLEDILMEE [D11Q]	4.41
FPSDHLGDLGCPFHLGLEDILMEE [D11C]	2.74
FPSDHLGDLGFPFHLGLEDILMEE [D11F]	2.66
FPSDHLGDLGNPFHLGLEDILMEE [D11N]	2.12
FPSDHLGDLGLPFHLGLEDILMEE [D11L]	2.89
FPSDHLGDLGHPFHLGLEDILMEE [D11H]	2.27
FPSDHLGDLGAPFHLGLEDILMEE [D11A]	3.23
FPSDHLGDLGRPFHLGLEDILMEE [D11R]	3.72
FPSDHLGDLGDPFHLGLKDILMEE [E18K]	2.85
FPSDHLGDLGDPFHLGLCDILMEE [E18C]	2.18
FPSDHLGDLGDPFHLGLDDILMEE [E18D]	3.87
FPSDHLGDLGDPFHLGLYDILMEE [E18Y]	2.1
FPSDHLGDLGDPFHLGLNDILMEE [E18N]	3.12
FPSDHLGDLGDPFHLGLLDILMEE [E18L]	1.98
FPSDHLGDLGDPFHLGLTDILMEE [E18T]	2.72
FPSDHLGDLGDPFHLGLMDILMEE [E18M]	2.62
FPSDHLGDLGDPFHLGLFDILMEE [E18F]	1.91
FPSDHLGDLGDPFHLGLGDILMEE [E18G]	2.86
FPSDHLGDLGDPFHLGLIDILMEE [E18I]	2.01
FPSDHLGDLGDPFHLGLADILMEE [E18A]	2.7

Variant	protein stability index
FPSDHLGDLGDPFHLGLSDILMEE [E18S]	3.51
FPSDHLGDLGDPFHLGLRDILMEE [E18R]	2.28
FPSDHLGDLGDPFHLGLPDILMEE [E18P]	3.07
FPSDHLGDLGDPFHLGLVDILMEE [E18V]	3.22
FPSDHLGDLGDPFHLGLHDILMEE [E18H]	2.72
FPSDHLGDLGDPFHLGLWDILMEE [E18W]	2.65
FPSDHLGDLGDPFHLGLQDILMEE [E18Q]	2.89
FPSDHLGDLGDKFHLGLEDILMEE [P12K]	4.02
FPSDHLGDLGDTFHLGLEDILMEE [P12T]	4.24
FPSDHLGDLGDEFHLGLEDILMEE [P12E]	4.15
FPSDHLGDLGDMFHLGLEDILMEE [P12M]	3.46
FPSDHLGDLGDVFHLGLEDILMEE [P12V]	3.5
FPSDHLGDLGDSFHLGLEDILMEE [P12S]	4.84
FPSDHLGDLGDAFHLGLEDILMEE [P12A]	3.11
FPSDHLGDLGDLFHLGLEDILMEE [P12L]	2.81
FPSDHLGDLGDDFHLGLEDILMEE [P12D]	4.35
FPSDHLGDLGDYFHLGLEDILMEE [P12Y]	3.4
FPSDHLGDLGDCFHLGLEDILMEE [P12C]	3.62
FPSDHLGDLGDRFHLGLEDILMEE [P12R]	4.1
FPSDHLGDLGDIFHLGLEDILMEE [P12I]	3.23
FPSDHLGDLGDQFHLGLEDILMEE [P12Q]	4.29
FPSDHLGDLGDWFHLGLEDILMEE [P12W]	2.71
FPSDHLGDLGDFFHLGLEDILMEE [P12F]	4.01
FPSDHLGDLGDGFHLGLEDILMEE [P12G]	4.1

Variant	protein stability index
FPSDHLGDLGDHFHLGLEDILMEE [P12H]	3.98
FPSDHLGDLGDNFHLGLEDILMEE [P12N]	4.3
FPSDHLGDLGDPFHLGLELILMEE [D19L]	2.03
FPSDHLGDLGDPFHLGLEFILMEE [D19F]	2.09
FPSDHLGDLGDPFHLGLEEILMEE [D19E]	3.2
FPSDHLGDLGDPFHLGLEKILMEE [D19K]	3.29
FPSDHLGDLGDPFHLGLENILMEE [D19N]	3.06
FPSDHLGDLGDPFHLGLEYILMEE [D19Y]	1.91
FPSDHLGDLGDPFHLGLECILMEE [D19C]	2.91
FPSDHLGDLGDPFHLGLERILMEE [D19R]	2.77
FPSDHLGDLGDPFHLGLESILMEE [D19S]	2.69
FPSDHLGDLGDPFHLGLETILMEE [D19T]	2.58
FPSDHLGDLGDPFHLGLEWILMEE [D19W]	2.16
FPSDHLGDLGDPFHLGLEQILMEE [D19Q]	2.83
FPSDHLGDLGDPFHLGLEVILMEE [D19V]	1.97
FPSDHLGDLGDPFHLGLEIILMEE [D19I]	2.92
FPSDHLGDLGDPFHLGLEHILMEE [D19H]	3.29
FPSDHLGDLGDPFHLGLEGILMEE [D19G]	3.46
FPSDHLGDLGDPFHLGLEMILMEE [D19M]	2.28
FPSDHLGDLGDPFHLGLEAILMEE [D19A]	2.1
FPSDHLGDLGDPFHLGLEPILMEE [D19P]	3.31
FPSDHLGDLGDPFHQGLEDILMEE [L15Q]	3.87
FPSDHLGDLGDPFHNGLEDILMEE [L15N]	3.77
FPSDHLGDLGDPFHKGLEDILMEE [L15K]	3.1

Variant	protein stability index
FPSDHLGDLGDPFHFGLEDILMEE [L15F]	3.36
FPSDHLGDLGDPFHWGLEDILMEE [L15W]	3.49
FPSDHLGDLGDPFHTGLEDILMEE [L15T]	3.85
FPSDHLGDLGDPFHPGLEDILMEE [L15P]	3.7
FPSDHLGDLGDPFHYGLEDILMEE [L15Y]	3.56
FPSDHLGDLGDPFHVGLEDILMEE [L15V]	3.24
FPSDHLGDLGDPFHRGLEDILMEE [L15R]	3.61
FPSDHLGDLGDPFHSGLEDILMEE [L15S]	3.67
FPSDHLGDLGDPFHEGLEDILMEE [L15E]	4.21
FPSDHLGDLGDPFHDGLEDILMEE [L15D]	4.45
FPSDHLGDLGDPFHCGLEDILMEE [L15C]	3.31
FPSDHLGDLGDPFHHGLEDILMEE [L15H]	3.93
FPSDHLGDLGDPFHAGLEDILMEE [L15A]	4.29
FPSDHLGDLGDPFHGGLEDILMEE [L15G]	3.63
FPSDHLGDLGDPFHIGLEDILMEE [L15I]	3.05
FPSDHLGDLGDPFHMGLEDILMEE [L15M]	3.35
FPSDHLGDLGDPFHLLLEDILMEE [G16L]	2.4
FPSDHLGDLGDPFHLSLEDILMEE [G16S]	3.26
FPSDHLGDLGDPFHLTLEDILMEE [G16T]	3.1
FPSDHLGDLGDPFHLELEDILMEE [G16E]	3.96
FPSDHLGDLGDPFHLCLEDILMEE [G16C]	2.7
FPSDHLGDLGDPFHLQLEDILMEE [G16Q]	3.6
FPSDHLGDLGDPFHLKLEDILMEE [G16K]	3.3
FPSDHLGDLGDPFHLHLEDILMEE [G16H]	3.25

Variant	protein stability index
FPSDHLGDLGDPFHLDLEDILMEE [G16D]	3.59
FPSDHLGDLGDPFHLMLEDILMEE [G16M]	3.51
FPSDHLGDLGDPFHLRLEDILMEE [G16R]	2.7
FPSDHLGDLGDPFHLFLEDILMEE [G16F]	2.16
FPSDHLGDLGDPFHLWLEDILMEE [G16W]	1.85
FPSDHLGDLGDPFHLPLEDILMEE [G16P]	3.35
FPSDHLGDLGDPFHLNLEDILMEE [G16N]	3.34
FPSDHLGDLGDPFHLALEDILMEE [G16A]	3.58
FPSDHLGDLGDPFHLYLEDILMEE [G16Y]	2.68
FPSDHLGDLGDPFHLILEDILMEE [G16I]	2.31
FPSDHLGDLGDPFHLVLEDILMEE [G16V]	2.67
FPSDHLGDLGDPVHLGLEDILMEE [F13V]	4.89
FPSDHLGDLGDPWHLGLEDILMEE [F13W]	1.76
FPSDHLGDLGDPDHLGLEDILMEE [F13D]	5.22
FPSDHLGDLGDPEHLGLEDILMEE [F13E]	5.21
FPSDHLGDLGDPCHLGLEDILMEE [F13C]	4.62
FPSDHLGDLGDPSHLGLEDILMEE [F13S]	4.87
FPSDHLGDLGDPLHLGLEDILMEE [F13L]	4.25
FPSDHLGDLGDPMHLGLEDILMEE [F13M]	4.7
FPSDHLGDLGDPKHLGLEDILMEE [F13K]	4.89
FPSDHLGDLGDPTHLGLEDILMEE [F13T]	4.93
FPSDHLGDLGDPYHLGLEDILMEE [F13Y]	2.82
FPSDHLGDLGDPQHLGLEDILMEE [F13Q]	4.61
FPSDHLGDLGDPNHLGLEDILMEE [F13N]	4.97

Variant	protein stability index
FPSDHLGDLGDPPHLGLEDILMEE [F13P]	4.91
FPSDHLGDLGDPRHLGLEDILMEE [F13R]	4.74
FPSDHLGDLGDPGHLGLEDILMEE [F13G]	4.97
FPSDHLGDLGDPHHLGLEDILMEE [F13H]	5.09
FPSDHLGDLGDPIHLGLEDILMEE [F13I]	4.34
FPSDHLGDLGDPAHLGLEDILMEE [F13A]	4.62
FPSDHLGDLNDPFHLGLEDILMEE [G10N]	2.97
FPSDHLGDLIDPFHLGLEDILMEE [G10I]	3.04
FPSDHLGDLWDPFHLGLEDILMEE [G10W]	2.76
FPSDHLGDLLDPFHLGLEDILMEE [G10L]	3.05
FPSDHLGDLMDPFHLGLEDILMEE [G10M]	3.33
FPSDHLGDLQDPFHLGLEDILMEE [G10Q]	3.05
FPSDHLGDLVDPFHLGLEDILMEE [G10V]	3.63
FPSDHLGDLYDPFHLGLEDILMEE [G10Y]	2.21
FPSDHLGDLRDPFHLGLEDILMEE [G10R]	3.3
FPSDHLGDLPDPFHLGLEDILMEE [G10P]	3.47
FPSDHLGDLKDPFHLGLEDILMEE [G10K]	3.14
FPSDHLGDLTDPFHLGLEDILMEE [G10T]	3.46
FPSDHLGDLSDPFHLGLEDILMEE [G10S]	3.15
FPSDHLGDLHDPFHLGLEDILMEE [G10H]	2.95
